Average polarisation of the saline control relative to the aCH (SPADE) formulation data for one substance are collected here from paper PMC9982585.

For this test, the target named is Type I Human Collagen (human) (UniProt P02452). The test can be described thus: fluorescence polarisation; Cy5.5-labelled insulin formulated in saline (control) or in aCH (SPADE), mixed with a Type I human collagen solution at a predetermined w/w ratio; read immediately after mixing on a Molecular Devices Flexstation 3 plate reader. (Fluorescence polarisation rises when a labelled molecule tumbles more slowly, as on binding a larger partner.)
Sequence of UniProt P02452 (P02452 162-1218, chain 1 of 2): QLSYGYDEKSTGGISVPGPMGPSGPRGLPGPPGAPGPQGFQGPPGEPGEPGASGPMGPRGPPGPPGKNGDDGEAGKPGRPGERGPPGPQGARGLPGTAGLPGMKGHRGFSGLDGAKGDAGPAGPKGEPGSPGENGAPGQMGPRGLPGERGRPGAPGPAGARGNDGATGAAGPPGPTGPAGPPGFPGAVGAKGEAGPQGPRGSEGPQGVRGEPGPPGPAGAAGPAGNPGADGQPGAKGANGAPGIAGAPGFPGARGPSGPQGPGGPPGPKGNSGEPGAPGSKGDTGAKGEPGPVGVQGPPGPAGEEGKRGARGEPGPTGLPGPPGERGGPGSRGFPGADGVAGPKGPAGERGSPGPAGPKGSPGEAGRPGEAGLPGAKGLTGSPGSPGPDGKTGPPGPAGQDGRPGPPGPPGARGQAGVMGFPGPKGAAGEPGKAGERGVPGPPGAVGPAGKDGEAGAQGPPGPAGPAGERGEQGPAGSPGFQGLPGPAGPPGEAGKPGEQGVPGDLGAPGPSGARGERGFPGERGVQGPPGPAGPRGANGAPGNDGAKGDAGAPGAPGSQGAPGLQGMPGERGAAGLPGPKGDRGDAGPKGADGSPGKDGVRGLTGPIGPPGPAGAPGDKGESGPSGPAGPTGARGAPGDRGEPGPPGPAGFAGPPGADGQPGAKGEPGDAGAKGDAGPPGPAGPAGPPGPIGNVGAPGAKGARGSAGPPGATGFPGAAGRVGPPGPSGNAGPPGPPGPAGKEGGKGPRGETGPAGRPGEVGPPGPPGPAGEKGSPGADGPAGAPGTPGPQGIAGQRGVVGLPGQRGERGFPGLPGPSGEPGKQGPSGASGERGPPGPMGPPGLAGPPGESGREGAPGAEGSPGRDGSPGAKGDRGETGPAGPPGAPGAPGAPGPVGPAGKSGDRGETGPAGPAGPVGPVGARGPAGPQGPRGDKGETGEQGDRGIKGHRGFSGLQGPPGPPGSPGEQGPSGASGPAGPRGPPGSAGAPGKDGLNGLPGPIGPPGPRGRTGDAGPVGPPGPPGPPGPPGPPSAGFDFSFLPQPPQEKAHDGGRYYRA
Sequence of UniProt P02452 (P08123 80-1119, chain 2 of 2, further chain): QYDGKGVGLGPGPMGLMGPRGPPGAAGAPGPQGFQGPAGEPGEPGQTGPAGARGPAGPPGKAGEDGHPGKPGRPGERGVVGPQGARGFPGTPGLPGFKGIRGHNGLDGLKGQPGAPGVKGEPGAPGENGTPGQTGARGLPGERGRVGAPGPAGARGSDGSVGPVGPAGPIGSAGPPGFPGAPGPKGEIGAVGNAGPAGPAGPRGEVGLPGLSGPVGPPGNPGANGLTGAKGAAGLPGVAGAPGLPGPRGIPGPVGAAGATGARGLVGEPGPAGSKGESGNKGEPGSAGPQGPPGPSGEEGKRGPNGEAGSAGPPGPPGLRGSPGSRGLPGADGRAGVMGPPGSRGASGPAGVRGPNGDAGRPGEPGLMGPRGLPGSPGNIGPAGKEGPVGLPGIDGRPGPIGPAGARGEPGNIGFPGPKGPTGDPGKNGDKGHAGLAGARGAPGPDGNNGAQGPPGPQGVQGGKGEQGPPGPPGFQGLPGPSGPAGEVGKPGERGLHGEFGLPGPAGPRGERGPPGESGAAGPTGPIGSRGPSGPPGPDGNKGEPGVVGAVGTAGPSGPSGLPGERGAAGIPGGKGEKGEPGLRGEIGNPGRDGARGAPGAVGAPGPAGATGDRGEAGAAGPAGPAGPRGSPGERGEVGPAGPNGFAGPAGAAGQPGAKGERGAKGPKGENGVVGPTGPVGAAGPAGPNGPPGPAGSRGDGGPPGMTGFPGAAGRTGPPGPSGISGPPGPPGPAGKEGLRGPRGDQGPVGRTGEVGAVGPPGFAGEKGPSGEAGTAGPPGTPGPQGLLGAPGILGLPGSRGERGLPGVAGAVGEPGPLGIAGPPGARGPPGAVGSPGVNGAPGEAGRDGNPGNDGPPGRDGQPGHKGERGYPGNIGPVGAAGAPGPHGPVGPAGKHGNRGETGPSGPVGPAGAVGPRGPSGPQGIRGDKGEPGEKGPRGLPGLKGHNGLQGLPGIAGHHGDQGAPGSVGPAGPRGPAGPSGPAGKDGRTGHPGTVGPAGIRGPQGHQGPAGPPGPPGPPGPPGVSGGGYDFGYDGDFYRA

As to “Cy 5.5 fluorescently-labeled insulin (ligand)”, the average polarisation of the saline control relative to the aCH (SPADE) formulation turned out to be 1.5 fold.
